Reference: patent publication US12416034B2, “Recombinant production of steviol glycosides” (EVOLVA SA, priority 2011, dated 2025)

Experiments:
Type in all cases: biochemical
[1] = In vitro transcribed and translated UGTs incubated with 19-SMG, LC-MS; settings: average LC-MS peak height, not quantitative
Procedure: (§1) EUGT11 was produced by in vitro transcription and translation, and incubated with various substrates in the RebD pathway. Similar experiments were carried out using in vitro transcribed and translated UGT91D2e. […] Compounds 1-3 were identified solely by mass and expected retention time. The numbers shown in FIG. 3 are the average peak height of the indicated steviol glycoside obtained from a LC-MS chromatogram, and, although not quantitative, can be used to compare the activity of the two enzymes. […] Both enzymes were able to convert steviol 19-O-monoglucoside (SMG) to compound 1, with EUGT11 being about ten times more efficient than UGT91D2e at converting 19-SMG to compound 1.

[2] = In vitro transcribed and translated UGTs incubated with RebA and UDP-glucose, LC-MS
Procedure: In vitro transcription and translation of these genes was performed, and the resulting UGTs incubated with RebA and UDP-glucose. Following incubation, the reactions were analyzed by LC-MS. […] See LC-MS chromatograms in FIG. 4. As shown in the left panel of FIG. 4, UGT91D2e produced a trace amount of RebD when RebA was used as the feedstock.
as §1
Both enzymes were able to convert RebA to RebD. However, EUGT11 was approximately 30 times better at converting RebA to RebD. Overall, it appears that EUGT11 produces more product than UGT91D2e in all reactions (with similar time, concentrations, temperature, and purity of enzyme) except the conversion of rubusoside to stevioside.

[3] = Limiting factor in RebA to RebD reaction
Procedure: Under the conditions described above for EUGT11, approximately 25% of the RebA administered was converted to RebD. The limiting factor in these conditions could be either the enzyme, UDP-glucose or RebA. Experiments were set up to distinguish between these possibilities. A standard assay was allowed to run its course during 4 hours. This was followed by addition of either extra RebA substrate, extra enzyme, extra UDP-glucose or extra enzyme and UDP-glucose.
Experiments were conducted to examine the limit to this benefit of adding bolus amounts of UDP-glucose and fresh enzyme in the conversion of RebA to RebD reaction. Additional enzyme or enzyme and UDP-glucose were added after 1, 6, 24 and 28 hours. In the case of the addition of both extra EUGT11 and UDP-glucose, a conversion of more than 70% was achieved. […] Alternatively, as explained below, EUGT11 may be metabolizing the UDP-glucose.

B1: EUGT11: UDP glycosyl transferase from Oryza sativa (GenBank AC133334), SEQ ID NO:152 (protein, listed as Oryza sativa)
chain: MDSGYSSSYAAAAGMHVVICPWLAFGHLLPCLDLAQRLASRGHRVSFVSTPRNISRLPPVRPALAPLVAFVALPLPRVEGLPDGAESTNDVPHDRPDMVELHRRAFDGLAAPFSEFLGTACADWVIVDVFHHWAAAAALEHKVPCAMMLLGSAHMIASIADRRLERAETESPAAAGQGRPAAAPTFEVARMKLIRTKGSSGMSLAERFSLTLSRSSLVVGRSCVEFEPETVPLLSTLRGKPITFLGLMPPLHEGRREDGEDATVRWLDAQPAKSVVYVALGSEVPLGVEKVHELALGLELAGTRFLWALRKPTGVSDADLLPAGFEERTRGRGVVATRWVPQMSILAHAAVGAFLTHCGWNSTIEGLMFGHPLIMLPIFGDQGPNARLIEAKNAGLQVARNDGDGSFDREGVAAAIRAVAVEEESSKVFQAKAKKLQEIVADMACHERYIDGFIQQLRSYKD
- efficiency at converting 19-SMG to compound 1 compared with UGT91D2e [1]: about ten
- amount of RebD produced when RebA was used as the feedstock ([2]; LC-MS chromatograms, FIG. 4): significant amount
- efficiency at converting RebA to RebD compared with UGT91D2e ([2]; in vitro transcribed and translated enzymes, preliminary quantification): approximately 30 times
- conversion of RebA to RebD ([3]; extra EUGT11 and UDP-glucose added after 1, 6, 24 and 28 hours): more than 70%
- RebA converted to RebD ([3]; standard conditions for EUGT11): approximately 25%
